Non-standard residues stand in square brackets, D forms with d. No end group written: not given here. *: point of attachment. Desaminotyrosyl = O=C(CCc1ccc(O)cc1)*; NMeY = CN[C@@H](Cc1ccc(O)cc1)C(=O)O; hArg = N=C(N)NCCCC[C@H](N)C(=O)O; Nle = CCCC[C@H](N)C(=O)O; Orn = NCCC[C@H](N)C(=O)O; Abu = CC[C@H](N)C(=O)O; Aoc = NCCCCCCCC(=O)O; Ava = NCCCCC(=O)O

Assay [1] addresses T1, human GHRH receptor (human pituitary membrane homogenates) (human) (UniProt Q02643).
T1 sequence (looked up): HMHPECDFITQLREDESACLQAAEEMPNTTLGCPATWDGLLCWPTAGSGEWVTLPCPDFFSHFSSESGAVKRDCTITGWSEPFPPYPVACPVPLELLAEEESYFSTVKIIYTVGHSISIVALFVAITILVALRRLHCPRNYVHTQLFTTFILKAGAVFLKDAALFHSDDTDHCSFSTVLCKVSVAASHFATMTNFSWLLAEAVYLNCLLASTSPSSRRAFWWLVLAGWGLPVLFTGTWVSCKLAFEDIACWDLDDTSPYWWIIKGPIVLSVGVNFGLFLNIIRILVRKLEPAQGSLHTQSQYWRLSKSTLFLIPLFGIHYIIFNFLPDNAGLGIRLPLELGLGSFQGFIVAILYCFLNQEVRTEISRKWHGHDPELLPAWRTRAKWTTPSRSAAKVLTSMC
The experiment in a line: radioligand competition vs 125I-JV-1-42 (0.2 nM), human pituitary membranes. (In general: Displacement assays read how much labelled ligand stays bound in the presence of the test substance.)

Assay [2] deals with T2, human GHRH receptor (human pituitary membrane homogenates) (human, UniProt Q02643 23-423).
T2 construct: whole, on cells; Native receptor in human pituitary membrane homogenates, not on intact cells; also called hGHRH receptor
T2 sequence (looked up): T1 sequence (looked up)
The experiment in a line: radioligand competition vs [His1,125I-Tyr10,Nle27]hGHRH(1-32)NH2 (0.2 nM), human pituitary membranes. From the text:
Normal human pituitaries were purchased from the National Hormone and Peptide Program (A. F. Parlow, Los Angeles, County Harbor—UCLA Medical Center, Torrance, Calif.).

Assay [3] has as its target T3, human GHRH receptor (human pituitary membrane homogenates) (human), Q02643.
T3 chain: T1 sequence (looked up)
In words: radioligand competition vs 125I-JV-1-42 (0.2 nM), human pituitary membranes.

As to “P-27407 [Dat^1, Gln^8, Orn^12, Abu^15, Orn^21, Nle^27, Asp^28]hGHRH(1-29)NH-CH3 (peptide)”, the Relative affinity (Binding potency) vs JI-38 in assay [1] turned out to be 1.45 fold.

In assay [1], “P-27406 [N-Me-Tyr^1, Gln^8, Orn^12, Abu^15, Orn^21, Nle^27, Asp^28]hGHRH(1-29)NH-CH3 (peptide)” gave a Relative affinity (Binding potency) vs JI-38 of 14.5 fold.

B1: P-22325 [N-Me-Tyr^1, Gln^8, Orn^12, Abu^15, Orn^21, Nle^27, Asp^28, Apa^30]hGHRH(1-30)NH2 (peptide, from a related filing)
peptide: [NMeY]ADAIFTQSYR[Orn]VL[Abu]QLSAR[Orn]LLQDI[Nle]DR[Ava]-NH2
On to B1, for which, in assay [1], the Relative affinity (Binding potency) vs JI-38 was 1.14 fold.

B2: P-23252 [Dat^1-D-Ala^2, Orn^12, Abu^15, Orn^21, Nle^27, Asp^28, Har^30]hGHRH(1-30)NH2 (peptide)
peptide: [Desaminotyrosyl][dA]DAIFTNSYR[Orn]VL[Abu]QLSAR[Orn]LLQDI[Nle]DR[hArg]-NH2
SMILES: CCCC[C@H](NC(=O)[C@@H](NC(=O)[C@H](CC(=O)O)NC(=O)[C@H](CCC(N)=O)NC(=O)[C@H](CC(C)C)NC(=O)[C@H](CC(C)C)NC(=O)[C@H](CCCN)NC(=O)[C@H](CCCNC(=N)N)NC(=O)[C@H](C)NC(=O)[C@H](CO)NC(=O)[C@H](CC(C)C)NC(=O)[C@H](CCC(N)=O)NC(=O)[C@H](CC)NC(=O)[C@H](CC(C)C)NC(=O)[C@@H](NC(=O)[C@H](CCCN)NC(=O)[C@H](CCCNC(=N)N)NC(=O)[C@H](Cc1ccc(O)cc1)NC(=O)[C@H](CO)NC(=O)[C@H](CC(N)=O)NC(=O)[C@@H](NC(=O)[C@H](Cc1ccccc1)NC(=O)[C@@H](NC(=O)[C@H](C)NC(=O)[C@H](CC(=O)O)NC(=O)[C@@H](C)NC(=O)CCc1ccc(O)cc1)[C@@H](C)CC)[C@@H](C)O)C(C)C)[C@@H](C)CC)C(=O)N[C@@H](CC(=O)O)C(=O)N[C@@H](CCCNC(=N)N)C(=O)N[C@@H](CCCCNC(=N)N)C(N)=O
notes: also called Peptide 23252
B2: in assay [2], the “Relative affinity (Binding potency) vs GHRH” value (“Relative affinity … vs GHRH” for short) worked out at 42.3 fold and the “Relative affinity (Binding potency) vs JI-38” value (shortened to “Relative affinity … vs JI-38”) came to 13.9 fold.

B3: P-23254 [Dat^1, D-Ala^2, Thr^8, Orn^12, Abu^15, Orn^21, Nle^27, Asp^28, Har^30]hGHRH(1-30)NH2 (peptide)
peptide: [Desaminotyrosyl][dA]DAIFTTSYR[Orn]VL[Abu]QLSAR[Orn]LLQDI[Nle]DR[hArg]-NH2
SMILES: CCCC[C@H](NC(=O)[C@@H](NC(=O)[C@H](CC(=O)O)NC(=O)[C@H](CCC(N)=O)NC(=O)[C@H](CC(C)C)NC(=O)[C@H](CC(C)C)NC(=O)[C@H](CCCN)NC(=O)[C@H](CCCNC(=N)N)NC(=O)[C@H](C)NC(=O)[C@H](CO)NC(=O)[C@H](CC(C)C)NC(=O)[C@H](CCC(N)=O)NC(=O)[C@H](CC)NC(=O)[C@H](CC(C)C)NC(=O)[C@@H](NC(=O)[C@H](CCCN)NC(=O)[C@H](CCCNC(=N)N)NC(=O)[C@H](Cc1ccc(O)cc1)NC(=O)[C@H](CO)NC(=O)[C@@H](NC(=O)[C@@H](NC(=O)[C@H](Cc1ccccc1)NC(=O)[C@@H](NC(=O)[C@H](C)NC(=O)[C@H](CC(=O)O)NC(=O)[C@@H](C)NC(=O)CCc1ccc(O)cc1)[C@@H](C)CC)[C@@H](C)O)[C@@H](C)O)C(C)C)[C@@H](C)CC)C(=O)N[C@@H](CC(=O)O)C(=O)N[C@@H](CCCNC(=N)N)C(=O)N[C@@H](CCCCNC(=N)N)C(N)=O
notes: also called Peptide 23254
As to B3, in assay [2], the “Relative affinity … vs GHRH” value is 84.5 fold and the “Relative affinity … vs JI-38” value was 27.8 fold.

B4: P-21304 [Dat^1, D-Ala^2, Gln^8, Orn^12, Abu^15, Orn^21, Nle^27, Asp^28, Amc^30]hGHRH(1-30)NH2 (peptide)
peptide: [Desaminotyrosyl][dA]DAIFTQSYR[Orn]VL[Abu]QLSAR[Orn]LLQDI[Nle]DR[Aoc]-NH2
SMILES: CCCC[C@H](NC(=O)[C@@H](NC(=O)[C@H](CC(=O)O)NC(=O)[C@H](CCC(N)=O)NC(=O)[C@H](CC(C)C)NC(=O)[C@H](CC(C)C)NC(=O)[C@H](CCCN)NC(=O)[C@H](CCCNC(=N)N)NC(=O)[C@H](C)NC(=O)[C@H](CO)NC(=O)[C@H](CC(C)C)NC(=O)[C@H](CCC(N)=O)NC(=O)[C@H](CC)NC(=O)[C@H](CC(C)C)NC(=O)[C@@H](NC(=O)[C@H](CCCN)NC(=O)[C@H](CCCNC(=N)N)NC(=O)[C@H](Cc1ccc(O)cc1)NC(=O)[C@H](CO)NC(=O)[C@H](CCC(N)=O)NC(=O)[C@@H](NC(=O)[C@H](Cc1ccccc1)NC(=O)[C@@H](NC(=O)[C@H](C)NC(=O)[C@H](CC(=O)O)NC(=O)[C@@H](C)NC(=O)CCc1ccc(O)cc1)[C@@H](C)CC)[C@@H](C)O)C(C)C)[C@@H](C)CC)C(=O)N[C@@H](CC(=O)O)C(=O)N[C@@H](CCCNC(=N)N)C(=O)NCCCCCCCC(N)=O
notes: also called Peptide 21304
Turning to B4, in assay [2], the “Relative affinity … vs GHRH” value is 74 fold and the “Relative affinity … vs JI-38” value came to 24.4 fold.

B5: P-23256 [Dat^1, D-Ala^2, Ala^8, Orn^12, Abu^15, Orn^21, Nle^27, Asp^28, Har^30]hGHRH(1-30)NH2 (peptide)
peptide: [Desaminotyrosyl][dA]DAIFTASYR[Orn]VL[Abu]QLSAR[Orn]LLQDI[Nle]DR[hArg]-NH2
SMILES: CCCC[C@H](NC(=O)[C@@H](NC(=O)[C@H](CC(=O)O)NC(=O)[C@H](CCC(N)=O)NC(=O)[C@H](CC(C)C)NC(=O)[C@H](CC(C)C)NC(=O)[C@H](CCCN)NC(=O)[C@H](CCCNC(=N)N)NC(=O)[C@H](C)NC(=O)[C@H](CO)NC(=O)[C@H](CC(C)C)NC(=O)[C@H](CCC(N)=O)NC(=O)[C@H](CC)NC(=O)[C@H](CC(C)C)NC(=O)[C@@H](NC(=O)[C@H](CCCN)NC(=O)[C@H](CCCNC(=N)N)NC(=O)[C@H](Cc1ccc(O)cc1)NC(=O)[C@H](CO)NC(=O)[C@H](C)NC(=O)[C@@H](NC(=O)[C@H](Cc1ccccc1)NC(=O)[C@@H](NC(=O)[C@H](C)NC(=O)[C@H](CC(=O)O)NC(=O)[C@@H](C)NC(=O)CCc1ccc(O)cc1)[C@@H](C)CC)[C@@H](C)O)C(C)C)[C@@H](C)CC)C(=O)N[C@@H](CC(=O)O)C(=O)N[C@@H](CCCNC(=N)N)C(=O)N[C@@H](CCCCNC(=N)N)C(N)=O
notes: also called Peptide 23256
For B5, in assay [2], the “Relative affinity … vs GHRH” value was 148 fold and the “Relative affinity … vs JI-38” value was found to be 48.7 fold.

B6: P-27413 [Dat^1, Gln^8, His^11, Orn^12, Abu^15, His^20, Orn^21, Nle^27, Asp^28]hGHRH(1-29)NH-CH3 (peptide)
chain: [Desaminotyrosyl]ADAIFTQSYH[Orn]VL[Abu]QLSAH[Orn]LLQDI[Nle]DR-NHMe
SMILES: CCCC[C@H](NC(=O)[C@@H](NC(=O)[C@H](CC(=O)O)NC(=O)[C@H](CCC(N)=O)NC(=O)[C@H](CC(C)C)NC(=O)[C@H](CC(C)C)NC(=O)[C@H](CCCN)NC(=O)[C@H](Cc1c[nH]cn1)NC(=O)[C@H](C)NC(=O)[C@H](CO)NC(=O)[C@H](CC(C)C)NC(=O)[C@H](CCC(N)=O)NC(=O)[C@H](CC)NC(=O)[C@H](CC(C)C)NC(=O)[C@@H](NC(=O)[C@H](CCCN)NC(=O)[C@H](Cc1c[nH]cn1)NC(=O)[C@H](Cc1ccc(O)cc1)NC(=O)[C@H](CO)NC(=O)[C@H](CCC(N)=O)NC(=O)[C@@H](NC(=O)[C@H](Cc1ccccc1)NC(=O)[C@@H](NC(=O)[C@H](C)NC(=O)[C@H](CC(=O)O)NC(=O)[C@H](C)NC(=O)CCc1ccc(O)cc1)[C@@H](C)CC)[C@@H](C)O)C(C)C)[C@@H](C)CC)C(=O)N[C@@H](CC(=O)O)C(=O)N[C@@H](CCCNC(=N)N)C(=O)NC
One may read the IC50 as the midpoint of a concentration-inhibition curve. A lower IC50 goes with greater potency. On to B6, for which, in assay [3], the IC50 amounted to 2.45 nM and the Relative affinity (Binding potency) vs JI-38 was 1.78 fold.

The record behind these values is patent US20140193378A1 (UNIVERSITY OF MIAMI, published 2014).
